Data: patent US20130323786A1 (Biogen, published 2013)
Where a chain is given by its changes, count along the chain named. Numbers in names are those of the source.

T1: human Fc receptor CD32a-GST fusion protein (human, UniProt P12318 34-217)
T1 construct: not shown: GST
T1 sequence (looked up): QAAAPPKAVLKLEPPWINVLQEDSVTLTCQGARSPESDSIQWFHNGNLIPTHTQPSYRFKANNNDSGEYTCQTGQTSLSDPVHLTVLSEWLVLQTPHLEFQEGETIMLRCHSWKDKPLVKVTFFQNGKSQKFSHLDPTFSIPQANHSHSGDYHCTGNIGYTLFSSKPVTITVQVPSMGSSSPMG

T2: human Fc receptor CD32b-GST fusion protein (human, UniProt P31994 43-217)
T2 construct: not shown: GST
T2 sequence (looked up): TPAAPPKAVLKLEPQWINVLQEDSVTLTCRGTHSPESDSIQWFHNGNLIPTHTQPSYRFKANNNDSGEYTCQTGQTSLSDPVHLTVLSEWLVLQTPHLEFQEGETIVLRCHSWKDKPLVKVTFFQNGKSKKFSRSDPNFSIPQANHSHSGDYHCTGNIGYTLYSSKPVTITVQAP

T3: LINGO-Fc (human, UniProt Q96FE5 40-538, limits assumed)
T3 construct: not shown: Fc part
T3 sequence: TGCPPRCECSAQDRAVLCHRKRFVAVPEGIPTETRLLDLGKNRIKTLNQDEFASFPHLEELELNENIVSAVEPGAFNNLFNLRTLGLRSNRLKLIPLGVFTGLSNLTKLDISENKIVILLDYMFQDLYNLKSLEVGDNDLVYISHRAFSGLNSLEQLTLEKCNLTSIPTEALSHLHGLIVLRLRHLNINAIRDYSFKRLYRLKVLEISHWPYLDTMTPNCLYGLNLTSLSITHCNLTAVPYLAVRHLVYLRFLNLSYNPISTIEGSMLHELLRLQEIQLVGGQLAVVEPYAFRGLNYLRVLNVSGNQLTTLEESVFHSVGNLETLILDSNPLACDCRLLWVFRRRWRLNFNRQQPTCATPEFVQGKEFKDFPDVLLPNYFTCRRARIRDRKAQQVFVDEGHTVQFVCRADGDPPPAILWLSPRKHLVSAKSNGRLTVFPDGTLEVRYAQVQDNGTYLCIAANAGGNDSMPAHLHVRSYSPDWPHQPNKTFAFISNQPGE

B1: Li81 (agly) (antibody, human IgG1)
heavy: not shown
VL: DIQMTQSPATLSLSPGERATLSCRASQSVSSYLAWYQQKPGQAPRLLIYDASNRATGIPARFSGSGSGTDFTLTISSLEPEDFAVYYCQQRSNWPMYTFGQGTKLEIK
notes: Aglycosylated fully human IgG1 (single T to A change in the heavy chain); also called Li81 Ig1agly; Li81 Mab; copies: 2 + 2
B2: Li33 variant W50F (SEQ ID NO:148) (antibody, V domains shown)
VH: EVQLLESGGGLVQPGGSLRLSCAASGFTFSIYPMFWVRQAPGKGLEWVSFIGPSGGITKYADSVKGRFTISRDNSKNTLYLQMNSLRAEDTATYYCAREGHNDWYFDLWGRGTLVTVSS
VL: DIQMTQSPGTLSLSPGERATLSCRASQSVSSYLAWYQQKPGQAPRLLIYDASNRATGIPARFSGSGSGTEFTLTISSLQSEDFAVYYCQQYDKWPLTFGGGTKVEIKR
notes: unchanged chain from WT Li33
B3: Li33 variant W50H (SEQ ID NO:147) (antibody, V domains shown)
VH: B2 VH with F50H
VL: B2 VL
notes: unchanged chain from WT Li33
B4: Li33 variant W50I (SEQ ID NO:174) (antibody, V domains shown)
VH: B2 VH with F50I
VL: B2 VL
notes: unchanged chain from WT Li33
B5: Li33 variant W50L (SEQ ID NO:149) (antibody, V domains shown)
VH: B2 VH with F50L
VL: B2 VL
notes: unchanged chain from WT Li33
B6: Li33 variant W50M (SEQ ID NO:150) (antibody, V domains shown)
VH: B2 VH with F50M
VL: B2 VL
notes: unchanged chain from WT Li33
B7: Li33 variant W94A (SEQ ID NO:165) (antibody, V domains shown)
VH: B2 VH with F50W
VL: B2 VL with W94A
notes: unchanged chain from WT Li33
B8: Li33 variant W94D (SEQ ID NO:166) (antibody, V domains shown)
VH: B2 VH with F50W
VL: B2 VL with W94D
notes: unchanged chain from WT Li33
B9: Li33 variant W94G (SEQ ID NO:169) (antibody, V domains shown)
VH: B2 VH with F50W
VL: B2 VL with W94G
notes: unchanged chain from WT Li33
B10: Li33 variant W94L (SEQ ID NO:167) (antibody, V domains shown)
VH: B2 VH with F50W
VL: B2 VL with W94L
notes: unchanged chain from WT Li33
B11: Li33 variant W94N (SEQ ID NO:168) (antibody, V domains shown)
VH: B2 VH with F50W
VL: B2 VL with W94N
notes: unchanged chain from WT Li33
B12: Li33 variant W94Q (SEQ ID NO:170) (antibody, V domains shown)
VH: B2 VH with F50W
VL: B2 VL with W94Q
notes: unchanged chain from WT Li33
B13: Li33 variant W94S (SEQ ID NO:172) (antibody, V domains shown)
VH: B2 VH with F50W
VL: B2 VL with W94S
notes: unchanged chain from WT Li33
B14: Li33 variant W94V (SEQ ID NO:171) (antibody, V domains shown)
VH: B2 VH with F50W
VL: B2 VL with W94V
notes: unchanged chain from WT Li33
B15: Li33 variant W104H (SEQ ID NO:156) (antibody, V domains shown)
VH: B2 VH with F50W, W104H
VL: B2 VL
notes: unchanged chain from WT Li33
B16: Li33 variant W104I (SEQ ID NO:179) (antibody, V domains shown)
VH: B2 VH with F50W, W104I
VL: B2 VL
notes: unchanged chain from WT Li33
B17: Li33 variant W104L (SEQ ID NO:177) (antibody, V domains shown)
VH: B2 VH with F50W, W104L
VL: B2 VL
notes: unchanged chain from WT Li33
B18: Li33 variant W104M (SEQ ID NO:176) (antibody, V domains shown)
VH: B2 VH with F50W, W104M
VL: B2 VL
notes: unchanged chain from WT Li33
B19: Li33 variant W104Q (SEQ ID NO:158) (antibody, V domains shown)
VH: B2 VH with F50W, W104Q
VL: B2 VL
notes: unchanged chain from WT Li33
B20: Li33 variant W104Q (SEQ ID NO:187) (antibody, V domains shown)
VH: B2 VH with F50W, W104Q
VL: B2 VL
notes: unchanged chain from WT Li33
B21: Li33 variant W104S (SEQ ID NO:157) (antibody, V domains shown)
VH: B2 VH with F50W, W104S
VL: B2 VL
notes: unchanged chain from WT Li33
B22: Li33 variant W104T (SEQ ID NO:178) (antibody, V domains shown)
VH: B2 VH with F50W, W104T
VL: B2 VL
notes: unchanged chain from WT Li33
B23: Li33 variant W104V (SEQ ID NO:155) (antibody, V domains shown)
VH: B2 VH with F50W, W104V
VL: B2 VL
notes: unchanged chain from WT Li33

Target: T4, human Fc receptor CD16-GST fusion protein (human, UniProt P08637 17-208)
T4 construct: not shown: GST
Experiment: ALPHA competition vs biotinylated wild-type IgG1; relative to wt

With B1 the “fold decrease from wt” value was 50 fold.

Target: T5, human Fc receptor CD64-GST fusion protein (human, UniProt P12314 16-292, limits assumed)
T5 construct: not shown: GST
Experiment: as above

With B1 the “fold decrease from wt” value was > 100 fold.

Target: T1, human Fc receptor CD32a-GST fusion …
Experiment: as above

In the case of B1, the “fold decrease from wt” value is reported as 60 fold.

Target: T2, human Fc receptor CD32b-GST fusion …
Experiment: as above

B1 was tested, and the “fold decrease from wt” value was 15 fold.

Target: T3, LINGO-Fc
Experiment: direct ELISA on LINGO-Fc; OD450 at saturation relative to Li33;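 note: binding to plate-coated LINGO-Fc read by OD450, with the value at maximal saturation divided by the corresponding Li33 value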

Compared with B2, B3 is higher in “Plateau Ratio” value: 0.86 ratio for the first, 0.87 ratio for the second.

Compared with B4, B5 is lower in “Plateau Ratio” value: 12.4 ratio for the first, 1 ratio for the second.

Compared with B6, B7 is lower in “Plateau Ratio” value: 0.93 ratio for the first, 0.91 ratio for the second.

Compared with B8, B9 is higher in “Plateau Ratio” value: 0.87 ratio for the first, 1.03 ratio for the second.

Going from B10 to B11, the “Plateau Ratio” value rises from 0.97 ratio to 1.05 ratio.

Going from B12 to B13, the “Plateau Ratio” value falls from 1.05 ratio to 0.99 ratio.

B14 and B15 are the same in “Plateau Ratio” value: 0.91 ratio for the first, 0.91 ratio for the second.

Going from B16 to B17, the “Plateau Ratio” value rises from 0.62 ratio to 0.69 ratio.

First: B18
Second: B19
The “Plateau Ratio” value of the first is lower: 0.88 ratio for the first, 0.91 ratio for the second.

Compared with B20, B21 is higher in “Plateau Ratio” value: 0.67 ratio for the first, 0.85 ratio for the second.

Going from B22 to B23, the “Plateau Ratio” value rises from 0.33 ratio to 0.94 ratio.

Target: T3, LINGO-Fc
Experiment: direct ELISA on LINGO-Fc; half-maximal concentration relative to Li33;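 note: direct binding ELISA on plates coated with LINGO-Fc, concentration giving half of saturating binding, expressed as a ratio to the same value for the comparator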

First: B2
Second: B3
The “ELISA Ratio” value of the first is lower: 1.2 ratio for the first, 1.3 ratio for the second.

Compared with B4, B5 is lower in “ELISA Ratio” value: 93.5 ratio for the first, 1.8 ratio for the second.

Compared with B6, B7 is lower in “ELISA Ratio” value: 2 ratio for the first, 1.6 ratio for the second.

First: B8
Second: B9
The “ELISA Ratio” value of the first is higher: 1.5 ratio for the first, 0.9 ratio for the second.

First: B10
Second: B11
The “ELISA Ratio” value of the first is lower: 0.6 ratio for the first, 0.8 ratio for the second.

Going from B12 to B13, the “ELISA Ratio” value rises from 0.9 ratio to 1.3 ratio.

Compared with B14, B15 is lower in “ELISA Ratio” value: 1.4 ratio for the first, 0.1 ratio for the second.

Compared with B16, B17 is lower in “ELISA Ratio” value: 6.5 ratio for the first, 2.5 ratio for the second.

Compared with B18, B19 is lower in “ELISA Ratio” value: 3.8 ratio for the first, 2.4 ratio for the second.

Going from B20 to B21, the “ELISA Ratio” value rises from 1.1 ratio to 2.7 ratio.

Going from B22 to B23, the “ELISA Ratio” value falls from 3.5 ratio to 2.8 ratio.

Target: T4, human Fc receptor CD16-GST fusion …
Experiment: ALPHA competition vs biotinylated wild-type IgG1; receptor-GST

B1 was tested, and the IC50 was 179 µg/mL.

Target: T1, human Fc receptor CD32a-GST fusion …
Experiment: as above

Work on B1 yielded an IC50 of 365 µg/mL.

Target: T2, human Fc receptor CD32b-GST fusion …
Experiment: as above

B1 was tested, and the IC50 was 350 µg/mL.
